Where “and” joins values, the source holds several entries; their conditions need not be identical. Equal values may be shown once.
Columns and labels:
FXII = test: Serum FXII protein by ELISA after single SC dose in cynomolgus monkeys (Example 4); assay type: in vivo, cynomolgus macaque (Macaca fascicularis); parameters: key to Avg cFXII normalized to pre-treatment and control: ratio to animal's pre-dose geometric mean, then to saline group mean
Procedure: (§1) Multimeric (dimer) RNAi agent conjugates that included metabolically stabilized NAG targeting ligands were evaluated for gene silencing activity in cynomolgus macaque (Macaca fascicularis) primates (referred to herein as “cynos”). Each of the multimeric RNAi agent conjugates evaluated included one RNAi agent of the conjugate having sufficient complementarity with the mouse Angiopoietin-like 3 (ANGPTL3) gene transcript, and a second RNAi agent having sufficient complementarity with the mouse Factor 12 (FXII) gene transcript. As discussed in more detail below, both FXII and ANGPTL3 gene expression levels were assessed.
(§2) At day 1, male cynos were given a single subcutaneous administration of 0.3 mL/kg animal weight (20 mg/mL concentration) containing 6.0 mg/kg (mpk) of a multimeric RNAi agent conjugate formulated in isotonic saline, or 3.0 mg/kg of two separate RNAi conjugates, according to the following Table 3.
(§3) Three (3) cynos were dosed in each Group (n=3). Serum samples were taken on days −14, −7, and day 1 (pre-dose). Serum was then collected on days 8, 15, 22, 29, 36 43, 50, 57, 64, 71, 78, 98, 106, 120, 133, 148, and 162.
(§4) ANGPTL3 protein levels in serum were measured by ELISA assay (R&D Systems), according to the manufacturer's recommendations. FXII protein levels in serum were measured by ELISA assay (R&D Systems), according to the manufacturer's recommendations. The ANGPTL3 protein levels and FXII protein levels for each animal were normalized. For normalization, the level of ANGPTL3 protein or FXII protein, respectively, for each animal at a time point, was divided by the geometric mean of pre-treatment level of expression in that animal (in this case at days −14, −7 and 1 (pre-dose)) to determine the ratio of expression “normalized to pre-treatment.” Expression at a specific time point was then normalized to the saline control group by dividing the “normalized to pre-treatment” ratio for an individual animal by the mean “normalized to pretreatment” ratio of all […] in the saline control group.

ANGPTL3 = test: Serum ANGPTL3 protein by ELISA after single SC dose in cynomolgus monkeys (Example 4); assay type: in vivo, cynomolgus macaque (Macaca fascicularis); parameters: key to Avg cANGPTL3 normalized to pre-treatment and control: ratio to animal's pre-dose geometric mean, then to saline group mean
Procedure: as §1, §2, §3, §4

[1] = Day 8, single SC dose day 1, 6.0 mg/kg (Group 1: 3.0+3.0 mg/kg)
[2] = Day 15, single SC dose day 1, 6.0 mg/kg (Group 1: 3.0+3.0 mg/kg)
[3] = Day 22, single SC dose day 1, 6.0 mg/kg (Group 1: 3.0+3.0 mg/kg)
[4] = Day 29, single SC dose day 1, 6.0 mg/kg (Group 1: 3.0+3.0 mg/kg)
[5] = Day 36, single SC dose day 1, 6.0 mg/kg (Group 1: 3.0+3.0 mg/kg)
[6] = Day 43, single SC dose day 1, 6.0 mg/kg (Group 1: 3.0+3.0 mg/kg)
[7] = Day 50, single SC dose day 1, 6.0 mg/kg (Group 1: 3.0+3.0 mg/kg)
[8] = Day 57, single SC dose day 1, 6.0 mg/kg (Group 1: 3.0+3.0 mg/kg)
[9] = Day 64, single SC dose day 1, 6.0 mg/kg (Group 1: 3.0+3.0 mg/kg)
[10] = Day 71, single SC dose day 1, 6.0 mg/kg (Group 1: 3.0+3.0 mg/kg)
[11] = Day 78, single SC dose day 1, 6.0 mg/kg (Group 1: 3.0+3.0 mg/kg)
[12] = Day 98, single SC dose day 1, 6.0 mg/kg (Group 1: 3.0+3.0 mg/kg)
[13] = Day 106, single SC dose day 1, 6.0 mg/kg (Group 1: 3.0+3.0 mg/kg)
[14] = Day 120, single SC dose day 1, 6.0 mg/kg (Group 1: 3.0+3.0 mg/kg)
[15] = Day 133, single SC dose day 1, 6.0 mg/kg (Group 1: 3.0+3.0 mg/kg)
[16] = Day 148, single SC dose day 1, 6.0 mg/kg (Group 1: 3.0+3.0 mg/kg)
[17] = Day 162, single SC dose day 1, 6.0 mg/kg (Group 1: 3.0+3.0 mg/kg)

B1: AD14217: multimeric (dimer) FXII-ANGPTL3 RNAi agent conjugate with metabolically stabilized NAG42s ligand, SEQ ID NO 8-10 (nucleic acid)
chain 1: UUCAAAGCACUUUAUUGAG
chain 2: UUGAGUUGAGUUCAAGUGA
chain 3: UCACUUGAACUCAACUCAACUCAAUAAAGUGCUUUGAA
modifications: NAG42s ligand conjugate; modified_base 1 OTHER; 5'-cyclopropyl phosphonate-2'-O-methyluridine; modified_base 1^2 OTHER; phosphorothioate linkage; modified_base 2 OTHER; 2'-fluorouridine; modified_base 2^3 OTHER; modified_base 3 cm; modified_base 3^4 OTHER; modified_base 4 OTHER; 2'-fluoroadenosine; modified_base 5 OTHER; 2'-O-methyladenosine; modified_base 6 OTHER; 2'-fl; phosphoro
Avg cFXII normalized to pre-treatment and control (FXII; [1]): 0.430 | Avg cFXII normalized to pre-treatment and control (FXII; [2]): 0.230 | Avg cFXII normalized to pre-treatment and control (FXII; [3]): 0.219 | cFXII knockdown (FXII; [3]): approximately 78% | Avg cFXII normalized to pre-treatment and control (FXII; [4]): 0.095 | Avg cFXII normalized to pre-treatment and control (FXII; [5]): 0.126 | Avg cFXII normalized to pre-treatment and control (FXII; [6]): 0.103 | Avg cFXII normalized to pre-treatment and control (FXII; [7]): 0.104 | Avg cFXII normalized to pre-treatment and control (FXII; [8]): 0.065 | Avg cFXII normalized to pre-treatment and control (FXII; [9]): 0.093 | Avg cFXII normalized to pre-treatment and control (FXII; [10]): 0.211 | Avg cFXII normalized to pre-treatment and control (FXII; [11]): 0.230 | Avg cFXII normalized to pre-treatment and control (FXII; [12]): 0.316 | cFXII knockdown (FXII; [12]): approximately 69% | Avg cFXII normalized to pre-treatment and control (FXII; [13]): 0.316 | Avg cFXII normalized to pre-treatment and control (FXII; [14]): 0.443 | Avg cFXII normalized to pre-treatment and control (FXII; [15]): 0.536 | Avg cFXII normalized to pre-treatment and control (FXII; [16]): 0.567 | Avg cFXII normalized to pre-treatment and control (FXII; [17]): 0.468 | Avg cANGPTL3 normalized to pre-treatment and control (ANGPTL3; [1]): 0.361 | Avg cANGPTL3 normalized to pre-treatment and control (ANGPTL3; [2]): 0.288 | Avg cANGPTL3 normalized to pre-treatment and control (ANGPTL3; [3]): 0.194 | cANGPTL3 knockdown (ANGPTL3; [3]): approximately 81% | Avg cANGPTL3 normalized to pre-treatment and control (ANGPTL3; [4]): 0.261 | Avg cANGPTL3 normalized to pre-treatment and control (ANGPTL3; [5]): 0.246 | Avg cANGPTL3 normalized to pre-treatment and control (ANGPTL3; [6]): 0.272 | Avg cANGPTL3 normalized to pre-treatment and control (ANGPTL3; [7]): 0.327 | Avg cANGPTL3 normalized to pre-treatment and control (ANGPTL3; [8]): 0.456 | Avg cANGPTL3 normalized to pre-treatment and control (ANGPTL3; [9]): 0.548 | Avg cANGPTL3 normalized to pre-treatment and control (ANGPTL3; [10]): 0.521 | Avg cANGPTL3 normalized to pre-treatment and control (ANGPTL3; [11]): 0.505 | Avg cANGPTL3 normalized to pre-treatment and control (ANGPTL3; [12]): 0.490 | Avg cANGPTL3 normalized to pre-treatment and control (ANGPTL3; [13]): 0.777 and 0.770 | cANGPTL3 knockdown (ANGPTL3; [13]): approximately 33% | Avg cANGPTL3 normalized to pre-treatment and control (ANGPTL3; [14]): 0.943 | Avg cANGPTL3 normalized to pre-treatment and control (ANGPTL3; [15]): 0.892

B2: AD14218: multimeric (dimer) FXII-ANGPTL3 RNAi agent conjugate with metabolically stabilized NAG52s ligand, SEQ ID NO 11-13 (nucleic acid)
chain 1: UUCAAAGCACUUUAUUGAG
chain 2: UUGAGUUGAGUUCAAGUGA
chain 3: UCACUUGAACUCAACUCAACUCAAUAAAGUGCUUUGAA
modifications: NAG52s ligand conjugate; modified_base 1 OTHER; 5'-cyclopropyl phosphonate-2'-O-methyluridine; modified_base 1^2 OTHER; phosphorothioate linkage; modified_base 2 OTHER; 2'-fluorouridine; modified_base 2^3 OTHER; modified_base 3 cm; modified_base 3^4 OTHER; modified_base 4 OTHER; 2'-fluoroadenosine; modified_base 5 OTHER; 2'-O-methyladenosine; modified_base 6 OTHER; 2'-fl; phosphoro
Avg cFXII normalized to pre-treatment and control (FXII; [1]): 0.299 | Avg cFXII normalized to pre-treatment and control (FXII; [2]): 0.201 | Avg cFXII normalized to pre-treatment and control (FXII; [3]): 0.156 | cFXII knockdown (FXII; [3]): approximately 85% | Avg cFXII normalized to pre-treatment and control (FXII; [4]): 0.077 | Avg cFXII normalized to pre-treatment and control (FXII; [5]): 0.058 | Avg cFXII normalized to pre-treatment and control (FXII; [6]): 0.058 | Avg cFXII normalized to pre-treatment and control (FXII; [7]): 0.032 | Avg cFXII normalized to pre-treatment and control (FXII; [8]): 0.056 | Avg cFXII normalized to pre-treatment and control (FXII; [9]): 0.038 | Avg cFXII normalized to pre-treatment and control (FXII; [10]): 0.094 | Avg cFXII normalized to pre-treatment and control (FXII; [11]): 0.109 | Avg cFXII normalized to pre-treatment and control (FXII; [12]): 0.139 | cFXII knockdown (FXII; [12]): approximately 86% | Avg cFXII normalized to pre-treatment and control (FXII; [13]): 0.158 | Avg cFXII normalized to pre-treatment and control (FXII; [14]): 0.194 | Avg cFXII normalized to pre-treatment and control (FXII; [15]): 0.213 | Avg cFXII normalized to pre-treatment and control (FXII; [16]): 0.263 | cFXII inhibition (FXII; Day 162, single SC dose day 1, 6.0 mg/kg): more than 70% | Avg cFXII normalized to pre-treatment and control (FXII; [17]): 0.285 | Avg cANGPTL3 normalized to pre-treatment and control (ANGPTL3; [1]): 0.252 | Avg cANGPTL3 normalized to pre-treatment and control (ANGPTL3; [2]): 0.238 | Avg cANGPTL3 normalized to pre-treatment and control (ANGPTL3; [3]): 0.137 | cANGPTL3 knockdown (ANGPTL3; [3]): ~86% | Avg cANGPTL3 normalized to pre-treatment and control (ANGPTL3; [4]): 0.161 | Avg cANGPTL3 normalized to pre-treatment and control (ANGPTL3; [5]): 0.186 | Avg cANGPTL3 normalized to pre-treatment and control (ANGPTL3; [6]): 0.164 | Avg cANGPTL3 normalized to pre-treatment and control (ANGPTL3; [7]): 0.212 | Avg cANGPTL3 normalized to pre-treatment and control (ANGPTL3; [8]): 0.245 | Avg cANGPTL3 normalized to pre-treatment and control (ANGPTL3; [9]): 0.352 | Avg cANGPTL3 normalized to pre-treatment and control (ANGPTL3; [10]): 0.328 | Avg cANGPTL3 normalized to pre-treatment and control (ANGPTL3; [11]): 0.354 | Avg cANGPTL3 normalized to pre-treatment and control (ANGPTL3; [12]): 0.425 | Avg cANGPTL3 normalized to pre-treatment and control (ANGPTL3; [13]): 0.565 | cANGPTL3 knockdown (ANGPTL3; [13]): approximately 45% | Avg cANGPTL3 normalized to pre-treatment and control (ANGPTL3; [14]): 0.637 | Avg cANGPTL3 normalized to pre-treatment and control (ANGPTL3; [15]): 0.672
